The source of these data is paper PMC5832849.

The experiment concerns the target scFvD8 mutant (scFvD8-M), L96Tyr to Ser and H98Asp to Ser (mouse). Description: ELISA; competitive: scFv at 0.5 nM pre-incubated with preS1 recombinant protein (1000 to 0.01 nM in PBST) at 37 °C for 1 h, then added to plates coated with 100 nM preS1, room temperature 30 min; detected with HRP-labelled anti-SUMO antibody; relative affinity.

scFvD8 mutant (scFvD8-M), L96Tyr to Ser and H98Asp to Ser (mouse), sequence (heavy, as listed by the source, chain 1 of 2): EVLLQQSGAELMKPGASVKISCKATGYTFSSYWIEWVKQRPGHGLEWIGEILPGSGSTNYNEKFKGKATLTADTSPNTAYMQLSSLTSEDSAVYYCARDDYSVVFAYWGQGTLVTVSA
scFvD8 mutant (scFvD8-M), L96Tyr to Ser and H98Asp to Ser (mouse), sequence (light, as listed by the source, chain 2 of 2): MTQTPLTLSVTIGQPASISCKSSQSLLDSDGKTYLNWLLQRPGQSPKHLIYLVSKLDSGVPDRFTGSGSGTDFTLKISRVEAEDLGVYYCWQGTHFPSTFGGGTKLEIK

Regarding “HBV preS1 recombinant protein (domain or fragment)”, the relative affinity (concentration at 50% protein binding saturation) was 5 nM.
